Here are results for 2 molecules from publication PMC3467059 (Nucleic Acids Research, 2012).

One experiment deals with PspF1–275 F85Y (E. coli, UniProt P37344 1-275, F85Y). The experiment is described as follows: native gel or EMSA.
A further experiment concerns the target PspF1–275 T86S (E. coli, UniProt P37344 1-275, T86S). In words: native gel or EMSA. Background: Mobility shift assays separate free from complexed probe on a gel.

Consider LQQELQQ (peptide, UniProt P06223 33-39, looked up) [σ54RI peptide fragment, residues 33–39 (Patch 2)], for which the binding result with PspF1–275 F85Y and with PspF1–275 T86S was “binds” throughout.

With QLQQAIRL (peptide, UniProt P06223 18-25, looked up) [σ54RI peptide fragment, residues 18–25 (Patch 1)], in the experiment with PspF1–275 F85Y, the binding result is on record as “binds”.
